Assay results taken from publication PMC12495166, “Enhanced solid tumor cell targeting by a neoepitope-encoding oncolytic measles virus combined with CAR therapy” (Molecular Therapy Oncology, 2025).

Key:
[1] = target: T1, MICB-derived octapeptide VLQSQRTD (soluble) (human); assay: SPR
T1 peptide: VLQSQRTD

[2] = target: T2, MICB-derived octapeptide VLQSQRTD (soluble) (Homo sapiens); assay: SPR; antibodies (2 μg/mL) immobilised on an IgG-capture sensor chip; peptides as analyte, 0.5-100 nM octapeptide or 1-200 μM 13-aa peptide; single-cycle kinetics; HBS-EP pH 7.4, 30 μL/min; Sierra SPR-24 Pro; details: both partners purified
T2 construct: stalk octapeptide starting at position V302 and ending N-terminally of the annotated transmembrane domain; also called immunization peptide
T2 chain: VLQSQRTD

B1: monoclonal antibody clone 12F7 (antibody, V domains shown)
VH: QVQLQQSGAELVRPGTSVKVSCKASGYAFTNYLIEWIKQRPGQGLEWIGVINPRSGGTNYNEKFKGKATLTADKSSITVYMQLSSLTSDDSAIYFCVRSESYGDYGAWFAYWGQGTLVTVSA
VL: DIVLTQSPASLAVSLGQRATISCRASESVDSYGNSFMHWYQQKPGQPPKLLIDRASNRESGIPARFSGSGSRTDFTLTINPVEADDVATYYCQQSNEDPFTFGSGTKLEIK
notes: variable heavy domain of clone 12F7; constant region of the murine heavy chain; variable light domain of clone 12F7; constant region of the murine light chain; also called 12-F7-C12-E3; mAb 12F7; source: mouse hybridoma (ProteoGenix), purified by protein A/G
Q: Which koff [1] does the source give for B1 here?
A: 0.00536 s⁻¹

Q: What about the Kd [2] of the same binder?
A: 3.85 nM
